Data as given in the nanobody polyreactivity screen of Harvey et al. (2022).

Test: yeast display, Sf9 membrane polyspecificity reagent, FACS + sequencing; frameworks hold sequencing errors
How it was run: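 Nanobodies from a synthetic yeast display library (Saccharomyces cerevisiae BJ5465), induced 36–48 hours with galactose, were stained 1 hour at 4 °C with 10% biotinylated, detergent-solubilized Sf9 membrane reagent, enriched on streptavidin microbeads, then FACS-sorted. Anti-HA (expression) and streptavidin (reagent binding) fluorescence set low and high (top ~1%) gates. Polyreactivity labels come from the gate of origin. Genes were colony-PCR amplified, MiSeq 2 × 250 sequenced and filtered by CDR length.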
For “QVQLVESGGGLVQSGGSLRLSCAASGRILSYNTMGSYRQAPGKERELVAAISRGGSTYYADSVKGRFTISRDNAKNTVYLQMNSLKPEDTAVYYCNALLPPGSRKYNYWGQGTQVTVSS”, the “polyreactivity (PSR sort gate)” value was “high polyreactivity”.
With “QVQLVESGGGLVQSGGSLRLSCAASGRTFGGYAMGWYRQAPGKERELVAAIRRSGGSTYYADSVKGLFTISRDNAKNTFYLQMKSMKPEDTAVYYCAAYGIYNVRIYYLGQGTQVTVSS” the “polyreactivity (PSR sort gate)” value was “high polyreactivity”.
In the case of “QVQLVESGGGLVQSGGSLRLSCAASGRTFNANVMGWYRPAPGKERELVAAITYSGGSTYYADSVKGRFTISRDNAKNTVYLQMNSLKPEDTAVYYCAADYVYTFYYWGQGTQVTVSS”, the “polyreactivity (PSR sort gate)” value is reported as “low polyreactivity”.
With “QVQLVESGGGLVQSGGSLRLSCAASGSIFDFYVMGWYRQAPGKERELVAAITWSDGSTYYADSVKGRFTISRDNAKNTVYLQMNSLKPEDTAVYYCNAGYFPLLGYPADAIGYDYWGQGTQVTVSS” the “polyreactivity (PSR sort gate)” value was “low polyreactivity”.
In the case of “QVQLVESGGGLVQSGGSLRLSCAASGSIFNRYAMGWYRQAPGKERELVAAISARGGSTYYADSVKGRFTISRDNAKNTVYLQMNSLKPEDTAVYYCAARRQGDYYYWGQGTQVTVSS”, the “polyreactivity (PSR sort gate)” value is reported as “high polyreactivity”.
For “QVQLVESGGGLVQSGGSLRLSCAASGSTIFRYAMGWSRQAPGKERELVAAISWSGASTYYADSVKGRFTISRDNAKNPVYLHMNSQKPEDTAVYYCAARSRWYDAAGYPKYYYWGHGTQVTVSS”, the “polyreactivity (PSR sort gate)” value was “high polyreactivity”.
With “QVQLVESGGGLVQSGGSLRLSCAASGSTVTQYVMGWYRQAPGKERELVAAISDSGSTYYADSVKGRFTISRDKAKNTVYLQMNSLKPEDTAVYYCAAAAPYHGLLYEGDYGGQGTQVTVSS” the “polyreactivity (PSR sort gate)” value was “low polyreactivity”.
For “QVQLVESGGGLVQSGGSLRLSGAASGSTYGLNAMGWYRQAPRKEMELVAAITRSDITNYADSVNGRFRISRDNAKNTVYLQMNSLKPEDTAVYYCNKTPDRHRRYFGYGYWGQGTQVTVSS”, the “polyreactivity (PSR sort gate)” value was “low polyreactivity”.
With “QVQLVESGGGLVQSGGSLRLSSAASGYTFWAYPMGWYRQAPGKERELVAGISSRGSRTYYADSVKGRFTISRDNAKNTVYLQMNSLKPEDTAVYFCNALRTAQGYYPPLDYWGQGTQVTVSS” the “polyreactivity (PSR sort gate)” value was “high polyreactivity”.
In the case of “QVQLVESGGGLVQSGGSLRLTWAASGFTFNRYAMGWYRQAPGKEMELVAAITSRSGITYYADSVKGRFTISRDNAKNTVYLQMNSLKPEDTAVYYCAAYVSRSTEFDYGFWGQGTQVTVSS”, the “polyreactivity (PSR sort gate)” value is reported as “high polyreactivity”.
With “QVQLVESGGGLVQSRVSLRLSCAASGRTIYVNAMGWYRQAPGKEREFVATISGGGSTKYADSVKGRFTISRDNAKNTVYLQMNSLKPEDTAVYYCARRRERYTADSRGYGYWGQGTQVTVSS” the “polyreactivity (PSR sort gate)” value was “low polyreactivity”.
In the case of “QVQLVESGGGLVQTGGSLRLSCAASGRIFRSYAMGWYRPAPGKERELVAAISGSGGSTYYADSVKGRFTISRDNAKNTVYVQMNSLKPEDTAVYYCNACKVHPFSTRFYYWGQGTQVTVSS”, the “polyreactivity (PSR sort gate)” value is reported as “low polyreactivity”.
With “QVQLVESGGGLVQTGGSLRLSCAASGSIFGEYAMGWYRQAPGKEREFVADITWSDGSTYYADSVKGRFTISRDNAKNTVYLQMNSLKPEDTAVYYCAADSVLDRPVLYLWPWYLGDYWGQGTQVTVSS” the “polyreactivity (PSR sort gate)” value was “low polyreactivity”.
In the case of “QVQLVESGGGLVQTGGSLRLSCAASGSTFEYNAMGWYRQAPGKERELVAAITWTGGSRYYADSVKGRFTISRDNAKNSVYFQMNSLKPEDTAVYYCNAVSYVDIWDDRRYYYWGQGTQVTVSS”, the “polyreactivity (PSR sort gate)” value is reported as “low polyreactivity”.
For “QVQLVESGGGLVQTGGSLRLSCAASGSTFYLYTMGWYRQAPGKERELVAAISGRDGSTYYADSVKGRFTISRDNAKNTVYLQMNSLKPEDTAVYYCAADPGYTYVHVTYYYWGQGTQVTVSS”, the “polyreactivity (PSR sort gate)” value was “low polyreactivity”.
With “QVQLVESGGGLVQVGGSLRLSCAASGRTFWWYAMGWYRQAPGKERELVAAISRGSTNYADSVKGRFTISRDNAKNTVYLQMNSLKPEDTAVYYCKAVSLYQSHDYDYWGQGTQVTVSS” the “polyreactivity (PSR sort gate)” value was “low polyreactivity”.
In the case of “QVQLVESGGGLVQVGGSLRLSCAASGRTFYDYAMGWYRQAPGKERELVAAITWSGGSTYYADSVKGRFTISRDNAKNTVYLQMNSLKPEDTAVSYCAKGGSYQSRYDYWGQGTQVTVSS”, the “polyreactivity (PSR sort gate)” value is reported as “low polyreactivity”.
For “QVQLVESGGGLYQAGGSLRLSCAASGFIFDPYARGWYRQAPGKEMELVASITWYGGRTYYADSVKGRFTISRDNAKNTVYLQMNSLKPEDPAVYYCAARGYTVWDDYWGQGTQVTVSS”, the “polyreactivity (PSR sort gate)” value was “high polyreactivity”.
In the case of “QVQLVESGGGLYQAGGSLRLSCAASGFILSTNVMGWYRQAPGKEREKVAAISARGGSTYYADSVKGRFTISRDNAKNTVYLQMNILKPEDTAVYYCAARVYVSRSKRLNYWGQGTQVTVSS”, the “polyreactivity (PSR sort gate)” value is reported as “high polyreactivity”.
In the case of “QVQLVESGGGRDQAGGSLRLSCAASGSTFNGYAMGWYRQAPGKERELVAAISSRGGSTNYADSVKGRFTISRDNAKKTVYLQMNSLKPEDTAVYYCNAVYRRSRSVGSCFDDWGQVTQVTVSS”, the “polyreactivity (PSR sort gate)” value is reported as “high polyreactivity”.
With “QVQLVESGGGSVQAGGSLRLSCAASGSTFQTNAMGWYRQAPGKERELVAAISRTGGRTYYADSVKGRFTISRDNAKNTVYLQMNSLKPEDTAVYYCAASAWIRYNNRDGYGYWGQGTQVTVSS” the “polyreactivity (PSR sort gate)” value was “high polyreactivity”.
For “QVQLVESGGGSVQAGGSLRLSCAASGSTFQYYDMGWYRQAPGKERELVASITGSGDSTYYADSVKGRFTISRDNAKNTVYLQLNSLKPEDTAVYYCAAQNTWSGDYDYWGQGTQVTVSS”, the “polyreactivity (PSR sort gate)” value was “low polyreactivity”.
In the case of “QVQLVESGGGSVQAGGSLRLSCAASGSTFWSYAMGWYRQAPGKERELVAVITGSDGRTFYADSVKGRFTISRDNANNTFFLQMNSLKPEDTAVYYCAADALFRATRFDRSTSEDDYWGQGTQVTVSS”, the “polyreactivity (PSR sort gate)” value is reported as “low polyreactivity”.
With “QVQLVESGGGVVQAGGSLRISCAASGRTFGVYVMGWYRQAPGKERELVAAISSSGGRTYYADSVKGRFTISRDNAKNTFYLQMNSLKPEDTAVFYCNAVRRREERDGPPNQMDYWGQGTQVTVSS” the “polyreactivity (PSR sort gate)” value was “high polyreactivity”.
In the case of “QVQLVESGGGVVQAGGSLRISCDASGRTFWNYAMGWYRQAPGLERELVAVIRFSDGSTYYADSVKGRFTISRDNAKNTVYLQRNSLKPEDTAVYYCAAKGPRRWGSGFDYWGQGTQVTVSS”, the “polyreactivity (PSR sort gate)” value is reported as “low polyreactivity”.
In the case of “QVQLVESGGGVVQAGGSLRLICAASGSTFGVYAMGWYRQAPGKERELFASISESGGNTYYADSVKGRFTISRDNAKNTVYLQMNSLKPDDTAVYYCNTDVVDVHYIQAYYWGQVTQVTVSS”, the “polyreactivity (PSR sort gate)” value is reported as “low polyreactivity”.
For “QVQLVESGGGVVQAGGSLRLSCAASGFIFWVYALGWYRQAPGKASELVAAITGRGGRTYYVDAVKGRFTISRDNAKNTVYLQMNSLKPEDTAVYYCNTVPYPAYLARMVYWGQGTQVTVTS”, the “polyreactivity (PSR sort gate)” value was “high polyreactivity”.
In the case of “QVQLVESGGGVVQAGGSLRLSCAASGFTFVWHAMGWYRQAPGKEREFVAAISRRGGTTNYADSVKGRFTISRDNAKNTVYLQMNSLKPEDTAVYYCNIEPRYRSSGGMDYWGQGTQVTASS”, the “polyreactivity (PSR sort gate)” value is reported as “high polyreactivity”.
With “QVQLVESGGGVVQAGGSLRLSCAASGIIFDYYAMGLYRQAPGKERELVAAITSGGSTYYADSVKGRFTISRDNAKNSVYFQMKSLKAEDTAVYFCAAVYPRVRYDYWGQGTQVNVSS” the “polyreactivity (PSR sort gate)” value was “high polyreactivity”.
For “QVQLVESGGGVVQAGGSLRLSCAASGITFQGDDMGWYRQAPGKEREFVAAITWNGGSTYYADSVKGRFTISRDHAKNTVFLQMNSLKPEDTAVYYCAADWSITYGDGGYWGQGTQVTVSS”, the “polyreactivity (PSR sort gate)” value was “low polyreactivity”.
With “QVQLVESGGGVVQAGGSLRLSCAASGRIFHDYAMGWYRQAPGKERELVAGMTSGVRTYYADSVKGRFTISRDNEKNTVYLQMNSLKPEDTAVYYCARRLSPLYDYDYWGQGTQVTVSP” the “polyreactivity (PSR sort gate)” value was “low polyreactivity”.
In the case of “QVQLVESGGGVVQAGGSLRLSCAASGRIFRGYVMGWYRQAPRKERELVAAITWSGANTYYADSVKGRFTISRDNAMNTVYLQMNSLKPEDSAVYYCAATVSYWSTKEDDYWGLGTQVTVSS”, the “polyreactivity (PSR sort gate)” value is reported as “low polyreactivity”.
With “QVQLVESGGGVVQAGGSLRLSCAASGRIFVSNPMGWYRQAPGKERELVAAITSGGRTNYADSVKGRFTISRDNAKNTVYLQMNSLKPEDTAVYYCNARGYSSRGFRRYSTKYDYWGQGTQVTVSS” the “polyreactivity (PSR sort gate)” value was “high polyreactivity”.
For “QVQLVESGGGVVQAGGSLRLSCAASGRTFSYYAMGWYRQSPGKERELVATISYSTGNTNYADSVKGRFTISRDNAKNTVYLQMNSLKPEDTAVYYCAADFSPFVGETYWKYDYWGQGTQVTVSS”, the “polyreactivity (PSR sort gate)” value was “low polyreactivity”.
For “QVQLVESGGGVVQAGGSLRLSCAASGRTFWRYAMGWYRQAPGKERELVAAITSGGGSTYYADSVKGRFTISRDNAKNTVYLQMNSLKPEDTAVYYCNRAGRGSSFKGDYWGQGTQVTVSS”, the “polyreactivity (PSR sort gate)” value was “high polyreactivity”.
With “QVQLVESGGGVVQAGGSLRLSCAASGRTIDPKAMGWYRQAPGKERELVAAITRTGVRTYYADSVKGRFTISRDNAKNTVYLQLNILKPEYTAVYYCNRYGARSNDYWGQGTQVSVSS” the “polyreactivity (PSR sort gate)” value was “low polyreactivity”.
For “QVQLVESGGGVVQAGGSLRLSCAASGRTIWSNAMGWYRQAPGKERELVAAISRTGGRTYYADSVKGRFTISRDNAKNTVYLQMNSLKREDTAVYYCATGSGVYDYWGQGTQLTVSS”, the “polyreactivity (PSR sort gate)” value was “high polyreactivity”.
With “QVQLVESGGGVVQAGGSLRLSCAASGSTAIYYTMGWYRQAPGKERELVAYADSVKGRFTISRDNAKTTVYLQMNSLKPEDTAVYSCAAPRTYYSELTSPYDYWGQGTQVTVSS” the “polyreactivity (PSR sort gate)” value was “low polyreactivity”.
For “QVQLVESGGGVVQAGGSLRLSCAASGSTFYINTMGWSRPAPGKDRELVAAISWTGGRTYYAASVKGRFTISRANAKNTVYLQMNSLKPEDTAVYYCAAYYNIPDRRRVGYDYWGQGTQVTVSS”, the “polyreactivity (PSR sort gate)” value was “high polyreactivity”.
In the case of “QVQLVESGGGVVQAGGSLRLSCAASGSTIYRYAMGWYRQAPGKEREFVPAITRTTARTYYADSVKGRFTFSRDNAKNTVYLQMNSLKPEDTAVYYCAADLYSWTWSGFRQYDSWGQGTQVTVSS”, the “polyreactivity (PSR sort gate)” value is reported as “high polyreactivity”.
With “QVQLVESGGGVVQAGGSLRLSCAASVRTFPGYAMGWYRQAPGKERELVAAISWSGTSTYYADSVKGRFTISRDYAKNTVYLQMNSLKPEYTAVYDCNKVYTYSAPYYYWGQGTQVTVSS” the “polyreactivity (PSR sort gate)” value was “high polyreactivity”.
With “QVQLVESGGGVVQAGGSLRLSCPASGSIFETYVMGWYRPAPGIERELVAAINSGGSTNYADSVKGRFTISRDNAKNTVYLQMNRLKPEDTAVYYCNADWFTPAQPWYRSFIRYDYWGQGTQVTVSS” the “polyreactivity (PSR sort gate)” value was “low polyreactivity”.
For “QVQLVESGGGVVQAGGSLSLSCAASGNTFPVYAMGWYRQASAKERELVATITSGGSTNYADSVKGRFTISRDNAKNTVYLQMNSLKPEDTAVYYCARRAVYSKRRYDYWGQGTQVTVSS”, the “polyreactivity (PSR sort gate)” value was “low polyreactivity”.
